From the Human Domainome abundance scans (Beltran et al. 2025)

B1: Spectrin alpha chain, erythrocytic 1, residues 979 to 1036; numbered along this chain, P02549 (parent)
chain: EQRVMALYDFQARSPREVTMKKGDVLTLLSSINKDWWKVEAADHQGIVPAVYVRRLAH

Variants of: B1
Test: abundance fitness (aPCA) (normalised: wild type 0, dead -1); higher = more abundant; growth selection in yeast, the domain comes from the species named
Details: Homo sapiens

Abundance fitness, by site and new letter:
V18: F -0.339 | K -0.418 | Q -0.656 | A -0.376 | G -0.587 | E -0.784 | P -0.71 | M -0.33 | L 0.138
P15: Y 0.325 | C -0.411 | K 0.089 | R -0.529
D43: S 0.096 | P -0.552 | R -0.708 | I -0.387 | A -0.314 | L -0.876 | T -0.223 | H 0.129
I47: L 0.065 | T -0.701 | N -0.25 | A -0.532 | V 0.228 | S -0.659
L26: E -0.5 | A -0.493 | Y -0.173 | V -0.767 | M -0.34 | G -0.65 | K -0.324 | I -0.691
Q11: D -0.582 | P -0.91 | M -0.314 | T 0.028 | I -0.419 | G -0.774 | K 0.303 | E -0.328 | H -0.421 | Y -0.185 | C -0.348
N33: E -0.064 | G -0.447 | W -0.822 | R -0.739 | V -0.833 | C -0.929 | D 0.224 | L -0.694
M20: N -0.209 | W -0.622 | Y -0.867 | I -0.554 | F -0.681 | L -0.276 | P -0.831 | R -0.963 | V -0.22 | Q -0.236
L56: V -0.207 | W -0.982 | Q -0.848 | P -0.45 | A -0.882 | I -0.021
P49: L -0.887 | S -0.497
L7: M -0.049 | H -1.18 | V -0.199 | R -0.686 | S -0.85 | W -0.716
V25: C -0.146 | A -0.163 | K -0.226
K21: W -0.534 | G -0.652 | F -0.643 | R -0.105
S14: N 0.014 | H -0.292 | V -0.677 | R -0.364 | A -0.743 | P -0.802 | I -0.276 | C -0.571 | Q -0.769 | G -0.358
D24: G -0.883 | Q 0.579 | L -0.986 | V -0.421
R16: S 0.579
A42: L 0.178 | P -0.223 | E -0.089 | H -0.031 | T -0.503 | C -0.197 | R -0.243 | N 0.315 | G 0.455
K38: R -0.033 | I 0.097 | Q 0.041 | V 0.303 | S -0.301 | T 0.373 | H -0.016 | M 0.083 | A -0.258 | G -0.832
G46: K -0.459 | R -0.58 | V -1.03 | W -0.452 | S -1.04
T19: V -0.822 | W -0.932 | Q -0.476 | A -0.371 | N -0.122 | L -0.369 | R -0.744
E17: G -0.801 | H -0.63 | L -0.802 | V -0.9 | C -0.911 | W -0.8 | D -0.738 | Y -0.012 | T -0.729
R3: Y 0.294 | S -0.737 | P -0.94 | C -0.645 | A -0.574
W36: E 0.664 | R -0.894 | D -0.582
A50: M -0.823 | C -0.512 | W -0.879 | R 0.04 | S 0.011 | D -0.872
K22: H -0.341 | C -0.586 | Q 0.303 | E -0.819 | R -0.238
F10: Q -0.607 | I -0.341 | Y 0.625 | D -0.834 | G -0.996 | L -0.658 | R -0.472 | V -0.992
A57: S 0.236 | P 0.297 | C -0.092 | N 0.105 | V -0.47 | K 0.933
W37: R -0.267 | V 0.367 | A -0.848 | I 0.405 | M -0.12
H44: W -0.483 | G 0.292 | M -0.039 | L -0.692
Y8: F 0.772
T27: S -0.808 | K 0.229 | I -0.521 | Q -0.228 | L -0.752 | N -0.246 | P -0.382
L29: R -0.768 | G -0.464 | E -0.934 | I -0.266 | T -0.27 | S -0.134 | W -0.111 | K 0.119 | M -0.582
K34: H 0.231 | L 0.207 | R -0.168 | A -0.292 | M -0.514 | T 0.023 | P -0.015 | G -0.415 | V -0.741 | Q -0.229
A12: W -0.804 | L -0.964 | S -0.802 | P -0.971
V4: G -1.05 | M -0.716 | K -0.739 | R -0.877 | P -0.927 | L -0.537
S31: W -0.814 | F -0.47 | K -0.179 | D 0.673 | V 0.437 | L -0.38 | E 0.518 | G -0.34
R13: V -0.867 | M -0.751 | F -0.585 | A -0.26
S30: V -0.964 | Y -0.108 | G -0.041 | L -1.18 | E -0.066 | T -0.632
E1: G -0.425
V51: P 0.173 | E -0.31 | D 0.148 | W -0.18 | G 0.146 | F 0.246 | Y -0.242 | L -0.083 | A 0.616
D35: M -0.535 | K -0.027 | A -0.541 | T -0.506 | E -0.364
L28: I 0.024 | K -0.676 | C 0.354 | T -0.47 | S -0.726 | A -0.762 | W -0.536
D9: T -0.862 | V -0.934 | S -0.754 | N -0.651 | M -0.855 | L -0.566
E40: D -0.388 | M -0.125 | S -0.187 | T -0.222 | G -0.217 | L -0.652 | P -0.744 | K 0.29 | R 0.217
H58: R -0.078
A41: C 0.001 | R 0.049 | V -0.633 | N -0.024 | T 0.043 | Y -0.448
R54: M -0.518 | H 0.83 | K 0.257 | D 0.095 | L -0.963 | V -0.53 | N -0.668
V39: F -0.658 | G -0.705 | E -0.332
V53: A -0.766 | L 0.13
A6: E -0.47 | W -0.754 | Q -0.975 | M -0.915 | L -0.886 | G -0.76
Y52: T -0.678 | V -0.682 | S 0.155 | E -0.165 | L -0.284 | M -0.045 | K -0.528 | F -0.367 | A 0.089 | G -0.659
M5: K -0.201 | C -0.516 | G -0.813 | V 0.422
Q45: D -0.498 | L -0.713 | E 0.039 | R -0.037 | I 0.027 | W -0.889 | K 0.09 | T 0.516 | G -0.754
Q2: H -0.061 | D 0.855 | P -0.874 | L -0.573 | T -0.614 | F 0.195 | S -0.822 | E 0.108
V48: G -1.09 | A -0.687 | K -0.56 | Q -0.656
